{"source": "paper PMC3587310", "about": "(Biochemistry, 2013)", "proteins": {"B1": {"name": "S. elongatus KaiC A422V mutant protein (natural protein, Synechococcus elongatus, UniProt Q79PF4 1-519, looked up)", "chain": "MTSAEMTSPNNNSEHQAIAKMRTMIEGFDDISHGGLPIGRSTLVSGTSGTGKTLFSIQFLYNGIIEFDEPGVFVTFEETPQDIIKNARSFGWDLAKLVDEGKLFILDASPDPEGQEVVGGFDLSALIERINYAIQKYRARRVSIDSVTSVFQQYDASSVVRRELFRLVARLKQIGATTVMTTERIEEYGPIARYGVEEFVSDNVVILRNVLEGERRRRTLEILKLRGTSHMKGEYPFTITDHGINIFPLGAMRLTQRSSNVRVSSGVVRLDEMCGGGFFKDSIILATGATGTGKTLLVSRFVENACANKERAILFAYEESRAQLLRNAYSWGMDFEEMERQNLLKIVCAYPESAGLEDHLQIIKSEINDFKPARIAIDSLSALARGVSNNAFRQFVIGVTGYAKQEEITGLFTNTSDQFMGVHSITDSHISTITDTIILLQYVEIRGEMSRAINVFKMRGSWHDKAIREFMISDKGPDIKDSFRNFERIISGSPTRITVDEKSELSRIVRGVQEKGPES", "modifications": "phosphothreonine at T432 in all six subunits; S431 not phosphorylated"}}, "target": "the molecule itself", "assay": "crystal structure"}
{"protein": "B1", "values": [{"measurement": "stoichiometry N", "result": 6}]}
